Where no end group is shown, it is not given here. The star is where a group is joined. Biotin = O=C1N[C@H]2[C@H](CS[C@H]2CCCCC(=O)*)N1

This note sets out measurements from publication doi:10.1101/2021.08.19.456998 (2021).

Assay [1] has as its target T1, cleaved SPAK (human SPAK CCT domain, residues 441-545, tags removed with TEV protease) (human). Briefly: waveRAPID, heterogeneous ligand model, site 1.
The target in assay [2] is T2, cleaved OSR1 (human OSR1 CCT domain, residues 423-527, tags removed with TEV protease) (human). As to the kind of experiment: waveRAPID, 1:1 model.
For assay [3], the target named is T1, cleaved SPAK (human SPAK CCT domain, …). Briefly: waveRAPID, heterogeneous ligand model, second site.
For assay [4] the target is unchanged. As to the kind of experiment: waveRAPID, heterogeneous ligand model, second site. The source holds these as a separate data set.
Assay [5] concerns the target T2, cleaved OSR1 (human OSR1 CCT domain, …). Briefly: multicycle kinetics, 1:1 model.
Assay [6] addresses T3, biotin-SPAK (uncleaved human SPAK CCT domain, residues 441-545, biotinylated on the AviTag) (human, biotin on the lysine of the AviTag (…)). Briefly: waveRAPID.
Assay [7] addresses T4, biotin-OSR (uncleaved human OSR1 CCT domain, residues 423-527, biotinylated on the AviTag) (human, biotin on the lysine of the AviTag (…)). Briefly: waveRAPID.
For assay [8], the target named is T3, biotin-SPAK (uncleaved human SPAK CCT …). As to the kind of experiment: multicycle kinetics.
Assay [9] concerns the target T4, biotin-OSR (uncleaved human OSR1 CCT …). Briefly: multicycle kinetics.

T4 sequence (chain, as listed by the source): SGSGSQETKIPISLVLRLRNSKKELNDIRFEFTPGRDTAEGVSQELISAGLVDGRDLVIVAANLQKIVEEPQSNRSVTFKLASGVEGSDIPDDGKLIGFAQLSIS
T2 sequence (chain, as listed by the source): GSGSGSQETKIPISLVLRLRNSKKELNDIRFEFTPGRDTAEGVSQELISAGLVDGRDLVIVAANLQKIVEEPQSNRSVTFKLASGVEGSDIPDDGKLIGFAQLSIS

A word on the koff: it is the first-order rate constant of dissociation. One may read the Kd as the concentration at which binding is half-saturated. Low readings indicate tighter binding, high ones weaker binding. On to {Biotin-C6}-SEEGKPQLVGRFQVTSSK [Biotin-C6-SEEGKPQLVGRFQVTSSK (N-terminally biotinylated 18-mer RFQV peptide derived from WNK4)], for which the koff in assay [1] is 0.584 s⁻¹; in assay [2], 0.662 s⁻¹; in assay [4], 6.98e-05 s⁻¹; in assay [5] it was 1.13 s⁻¹. This molecule also had a Kd in assay [3] of 4.25 nM.

Turning to SEEGKPQLVGRFQVTSSK [18-mer RFQV peptide derived from WNK4 (SEEGKPQLVGRFQVTSSK), unbiotinylated], the koff in assay [6] turned out to be 0.614 s⁻¹; in assay [7], 0.56 s⁻¹; in assay [8], 0.327 s⁻¹; in assay [9], 0.68 s⁻¹.
